The record followed here is publication PMC7823470, “Arabidopsis Plant Natriuretic Peptide Is a Novel Interactor of Rubisco Activase” (Life, 2020).

Entries after “also recorded” stand apart in the source; their conditions may differ. Bridge positions count the residues as written; N and C are the ends. Ends that are not written are not given here. Peptide text beside a SMILES is read from it. * marks the point of attachment. Biotin = O=C1N[C@H]2[C@H](CS[C@H]2CCCCC(=O)*)N1

The target in assay [1] is T1, recombinant RCA (rRCA) (Arabidopsis thaliana, UniProt P10896).
T1 construct: made in house; host or cells: E. coli BL21 (DE3) One Shot
As to the kind of experiment: biochemical. The assay is classed as binding. As for the experimental part:
(§1) SPR experiments were performed at 20 °C on a Biacore T100 instrument (GE Healthcare LifeSciences) with the use of Series S CM5 […] sensor chips as previously described. Data were acquired with Biacore T100 control software (version 2.0.2, GE Healthcare LifeSciences, Chicago, IL, USA). Kinetic analyses were performed at the flow of 100 μL min^−1 with pAtPNP-A (at 3.78 μM and consecutive two-fold dilutions; 11 injections included) […], whereas recombinant His-tagged RCA was used as […] immobilized on the active surface of the series S CM5 sensor chip with amine coupling kit. The surface was regenerated with glycine solution, pH 2.0 (GE Healthcare LifeSciences). The final sensorgram was generated with Scrubber (BioLogic Software Pty Ltd., Campbell, Australia).
In both analyses the ligand was immobilized at the same levels, analytes were injected at the same concentration and conditions of runs kept constant.

Assay [2] relates to A. thaliana (Col-0) mesophyll cell protoplasts. The assay can be described thus: Mesophyll cell protoplast (MCP) volume assay. The assay is classed as cell-based, Arabidopsis thaliana. The following applies: MCPs in 0.4 M mannitol, 20 min; 100 nM peptide or 1 μg mL^−1 rAtPNP-A; confocal microscopy, n = 50. The source says: Figure 1 Biologically active peptide containing the active region of AtPNP-A binds to RCA. (a) Schematics showing domain organization of AtPNP-A and the amino acid sequence of N-terminally biotinylated peptides used in the affinity-based experiments. pAtPNP-A—a peptide containing the active site of AtPNP-A; pScr—the corresponding scrambled peptide; SP—signal peptide. Cysteine residues forming a disulfide bond are underlined. (b) Assaying biological activity of the pAtPNP-A and purified recombinant AtPNP-A (rAtPNP-A). A. thaliana (Col-0) mesophyll cell protoplasts suspended in 0.4 M mannitol were treated with either water, or 100 nM pScr (negative control), or with 100 nM pAtPNP-A, or with 1 μg mL^−1 of rAtPNP-A protein for 20 min at room temperature. In each treatment, 50 randomly selected protoplasts with diameter >20 μm were included in quantitative analysis (scale bar = 20 μm). Protoplast volume was measured, and the data obtained from an exemplar experiment are plotted. […]
Biological activity of the synthetic peptides was verified in mesophyll cell protoplast (MCP) volume assay. […] Data are expressed as mean ± SD, and statistical analyses of one-way ANOVA followed by Tukey-Kramer multiple comparison test were performed using Prism 8.0 (GraphPad Software, San Diego, CA, USA).

In assay [3] the target is T2, recombinant RCA (rRCA) (Arabidopsis thaliana, UniProt P10896).
T2 construct: made in house; host or cells: E. coli BL21 (DE3) One Shot
T2 sequence (P10896 whole entry, looked up): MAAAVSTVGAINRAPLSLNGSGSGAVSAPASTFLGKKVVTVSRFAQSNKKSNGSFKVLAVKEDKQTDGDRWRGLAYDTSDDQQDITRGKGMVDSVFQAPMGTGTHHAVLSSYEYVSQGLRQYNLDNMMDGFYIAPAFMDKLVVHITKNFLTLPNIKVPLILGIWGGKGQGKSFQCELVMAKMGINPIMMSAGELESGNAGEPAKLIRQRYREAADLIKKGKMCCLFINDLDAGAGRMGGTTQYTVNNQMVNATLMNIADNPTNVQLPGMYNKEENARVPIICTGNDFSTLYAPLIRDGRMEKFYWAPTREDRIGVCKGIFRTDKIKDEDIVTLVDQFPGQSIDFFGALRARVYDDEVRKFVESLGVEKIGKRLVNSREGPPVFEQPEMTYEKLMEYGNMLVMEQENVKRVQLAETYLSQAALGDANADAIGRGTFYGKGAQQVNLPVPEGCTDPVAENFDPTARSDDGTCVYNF
The assay can be described thus: SPR, rAtPNP-A analyte over immobilized rRCA (CM5 chip). The assay is classed as binding. The following applies: for SPR binding to rRCA: rRCA amine-coupled on CM5 chip, rAtPNP-A as analyte, 20 °C, Biacore T100. As for the experimental part: as §1
Figure 2 AtPNP-A directly interacts with Arabidopsis RCA in vitro. (a) Molecular docking of AtPNP-A and RCA monomer. Surface model depicts predicted docking of AtPNP-A (blue), with its active region (cyan), and RCA (tan). The structure of AtPNP-A was predicted using the iterative threading assembly refinement (I-TASSER; version 5.1) method, while the 4W5W crystal structure of A. thaliana RCA [33] was derived from RCSB PDB. Protein—protein docking was performed using ClusPro). The models were analyzed and visualized using UCSF Chimera (version 1.10.2). (b) Recombinant protein preparations used in SPR analyses. (c) Exemplar sensorgrams depicting referenced binding response of the recombinant RCA and AtPNP-A proteins.
For orientation: Surface plasmon resonance follows binding to a sensor surface in real time, without labels.

Assay [4] concerns the target T3, purified recombinant N-terminally His-tagged rubisco activase (rRCA) (Arabidopsis thaliana, UniProt P10896 59-474).
T3 construct: Rubisco activase (RCA), A. thaliana, At2g39730; also called recombinant RCA; source: E. coli BL21 (DE3) One Shot, purified (Ni-NTA beads, HisTrap HP column); not shown: His6, N-terminal, kept
T3 sequence (looked up): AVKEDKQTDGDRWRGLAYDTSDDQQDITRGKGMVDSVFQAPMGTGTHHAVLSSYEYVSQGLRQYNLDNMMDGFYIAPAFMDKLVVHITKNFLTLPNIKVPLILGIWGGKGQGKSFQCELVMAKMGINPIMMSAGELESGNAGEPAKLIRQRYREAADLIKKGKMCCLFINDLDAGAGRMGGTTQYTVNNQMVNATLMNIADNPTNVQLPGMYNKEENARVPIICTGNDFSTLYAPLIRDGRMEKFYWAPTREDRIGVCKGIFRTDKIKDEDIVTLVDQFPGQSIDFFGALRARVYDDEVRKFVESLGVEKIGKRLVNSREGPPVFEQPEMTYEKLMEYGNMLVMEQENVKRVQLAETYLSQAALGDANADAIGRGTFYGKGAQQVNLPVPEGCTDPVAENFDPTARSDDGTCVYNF
The assay can be described thus: SPR; kinetic analysis: His-tagged rRCA immobilised by amine coupling on a Series S CM5 chip, pAtPNP-A injected at 3.78 μM and consecutive two-fold dilutions (11 injections), flow 100 μL/min, regeneration with glycine pH 2.0; Biacore T100, 20 °C. The following applies: both partners purified.

In assay [5] the target is T3, purified recombinant N-terminally …. The assay is described as above. The following applies: both partners purified. This is another data set of the same source.

On to `CC(C)C[C@@H]1NC(=O)[C@H](CC(N)=O)NC(=O)[C@H](CC(N)=O)NC(=O)[C@H](CCCCN)NC(=O)[C@H](C(C)C)NC(=O)CNC(=O)[C@H](C(C)C)NC(=O)[C@H](C(C)C)NC(=O)[C@H](CC(C)C)NC(=O)[C@H]([C@@H](C)O)NC(=O)[C@H](CCC(=O)O)NC(=O)[C@H](CCCNC(=N)N)NC(=O)[C@H](CCC(N)=O)NC(=O)[C@H]([C@@H](C)O)NC(=O)CNC(=O)[C@H](Cc2ccc(O)cc2)NC(=O)[C@@H](NC(=O)[C@H](C)NC(=O)[C@H](CO)NC(=O)[C@H](CCCNC(=N)N)NC(=O)[C@@H](NC(=O)[C@H](Cc2ccc(O)cc2)NC(=O)[C@@H]2CCCN2C(=O)[C@@H]2CCCN2C(=O)[C@H](CC(=O)O)NC(=O)[C@H](Cc2ccc(O)cc2)NC(=O)[C@H](Cc2ccc(O)cc2)NC(=O)[C@@H](NC(=O)[C@H](C)NC(=O)CCCC[C@@H]2SC[C@@H]3NC(=O)N[C@@H]32)C(C)C)[C@@H](C)O)CSSC[C@@H](C(=O)NCC(=O)N[C@@H](CCCNC(=N)N)C(=O)N[C@@H](CCCNC(=N)N)C(=O)N[C@@H](Cc2ccc(O)cc2)C(=O)O)NC(=O)[C@H](C)NC(=O)[C@H](CCCNC(=N)N)NC(=O)CNC(=O)[C@H](CC(N)=O)NC(=O)[C@H](CCC(N)=O)NC(=O)[C@H](Cc2c[nH]c3ccccc23)NC1=O` [pAtPNP-A] (Biotin-AVYYDPPYTRSACYGTQRETLVVGVKNNLWQNGRACGRRY-OH; disulfide 13-36), for which, on recombinant RCA (rRCA) [1], the “dissociation constant, range in words” value is reported as “sub-micromolar range; also recorded: nanomolar range”. For the same molecule, the kon on recombinant RCA (rRCA) [1] (read-out: ka (±SE), association rate constant) was found to be 16300 M⁻¹ s⁻¹. The koff at recombinant RCA (rRCA) [1] (read-out: kd (±SE), dissociation rate constant) came out at 0.000852 s⁻¹.

B1: rAtPNP-A: purified N-terminally His-tagged AtPNP-A protein (protein)
chain: AQGKAVYYDPPYTRSACYGTQRETLVVGVKNNLWQNGRACGRRYRVRCIGATYNFDRACTGRTVDVKVVDFCREPCNGDLNLSRDAFRVIANTDAGNIRVVYTPI
modifications: left off: His6, N-terminal, kept
notes: purified N-terminally His-tagged AtPNP-A protein
B1: the “Effect on protoplast volume” value in assay [2] is recorded as “protoplast volume increase”. Besides, the “SPR binding to RCA (abstract, in words)” value with recombinant RCA (rRCA) [3] (full-length recombinant AtPNP-A, SPR) was “bind specifically to RCA”. The entries for the “SPR binding to rRCA” value with recombinant RCA (rRCA) [3] and with recombinant RCA (rRCA) [3] (listed as recombinant AtPNP-A) were “bound to the rRCA protein immobilized on the active surface” and “confirmed by us in vitro”, respectively.

B2: pAtPNP-A, N-terminally biotinylated AtPNP-A(33–66) peptide containing the active region of AtPNP-A (peptide, UniProt Q9ZV52 33-66, looked up)
peptide: Biotin-YDPPYTRSACYGTQRETLVVGVKNNLWQNGRACG
modifications: disulfide 10-33 (inferred)
notes: AtPNP-A (plant natriuretic peptide A), A. thaliana, At2g18660, residues 33-66 (active region); Peptides were bought with or without the N-terminal biotin tag; also called biologically active fragment of AtPNP-A; source: synthetic peptide, bought: GenScript (purity at least 95%, HPLC)
Broadly, the Kd is the free concentration of one partner at which half of the binding sites on the other are occupied at equilibrium, for simple one-to-one binding. As to B2, the dissociation constant Kd in assay [4] worked out at 52.3 nM; in assay [5], 53 nM.
